B1: VPRPTSTVGLFL (peptide)
peptide: VPRPTSTVGLFL
B2: SPRRLVELAGQSL (peptide)
peptide: SPRRLVELAGQSL
B3: RPLDTFRVL (peptide)
peptide: RPLDTFRVL
B4: IPTSRVITL (peptide)
peptide: IPTSRVITL
B5: RPQPGWRESL (peptide)
peptide: RPQPGWRESL
B6: APAKDARASL (peptide)
peptide: APAKDARASL
B7: KPGFNISIL (peptide)
peptide: KPGFNISIL
B8: SPAAPLSPASSL (peptide)
peptide: SPAAPLSPASSL
B9: VPKPAIPSSSVL (peptide)
peptide: VPKPAIPSSSVL
B10: VPYPSPTCV (peptide)
peptide: VPYPSPTCV
B11: APARPAAAF (peptide)
peptide: APARPAAAF
B12: SPLEKINSF (peptide)
peptide: SPLEKINSF
B13: LPQLKPAL (peptide)
peptide: LPQLKPAL
B14: YPLSLALHF (peptide)
peptide: YPLSLALHF
B15: MPYNSAHHCVV (peptide)
peptide: MPYNSAHHCVV
B16: APRLALDPDAL (peptide)
peptide: APRLALDPDAL
B17: MVLGIGPVL (peptide)
peptide: MVLGIGPVL
B18: VPLSSYVSI (peptide)
peptide: VPLSSYVSI
B19: SPGWAQTQL (peptide)
peptide: SPGWAQTQL
B20: GPRTTQSSVL (peptide)
peptide: GPRTTQSSVL
B21: KPRTPFTTA (peptide)
peptide: KPRTPFTTA
B22: SPYGSDRLVQL (peptide)
peptide: SPYGSDRLVQL
B23: LPAFSKIGGIL (peptide)
peptide: LPAFSKIGGIL
B24: RPPPPCIAL (peptide)
peptide: RPPPPCIAL
B25: KPYEGRVEI (peptide)
peptide: KPYEGRVEI
B26: APSRLLEL (peptide)
peptide: APSRLLEL
B27: QPRDGWPMML (peptide)
peptide: QPRDGWPMML
B28: TPISNTGVL (peptide)
peptide: TPISNTGVL
B29: SPYAGSTAF (peptide)
peptide: SPYAGSTAF
B30: SPASRSISLL (peptide)
peptide: SPASRSISLL
B31: RPVWDVRSA (peptide)
peptide: RPVWDVRSA
B32: FPAPPAHWF (peptide)
peptide: FPAPPAHWF
B33: SPLLMQRTL (peptide)
peptide: SPLLMQRTL
B34: APKTSFIAA (peptide)
peptide: APKTSFIAA
B35: NPRSPPATM (peptide)
peptide: NPRSPPATM
B36: AVRLPTPNL (peptide)
peptide: AVRLPTPNL
B37: IPMPRITWL (peptide)
peptide: IPMPRITWL
B38: RPDVVRTLL (peptide)
peptide: RPDVVRTLL
B39: APVVFPAL (peptide)
peptide: APVVFPAL
B40: LPRAFLQSL (peptide)
peptide: LPRAFLQSL
B41: APMHIDRNIL (peptide)
peptide: APMHIDRNIL
B42: RPFSAIAEL (peptide)
peptide: RPFSAIAEL
B43: FPYDKPLIM (peptide)
peptide: FPYDKPLIM
B44: SPFSGGPVSF (peptide)
peptide: SPFSGGPVSF
B45: RPTHPLRSF (peptide)
peptide: RPTHPLRSF
B46: TPHGITDIL (peptide)
peptide: TPHGITDIL
B47: SPRSNPVRL (peptide)
peptide: SPRSNPVRL
B48: LPAPLRISL (peptide)
peptide: LPAPLRISL
B49: HPRWIEPTVM (peptide)
peptide: HPRWIEPTVM
B50: RPSAPRGPP (peptide)
peptide: RPSAPRGPP
B51: LPRSPPLKVL (peptide)
peptide: LPRSPPLKVL
B52: SPSTSRTPLLSSL (peptide)
peptide: SPSTSRTPLLSSL
B53: RPKSTLMNF (peptide)
peptide: RPKSTLMNF
B54: SPIPRPLFL (peptide)
peptide: SPIPRPLFL

Each binder was assayed against HLA-B*07 (human) (assay: UV peptide exchange ELISA; ++++ = yield >75%).

| Binder | peptide exchange yield [%] |
| --- | --- |
| B1 | > 75 |
| B2 | > 75 |
| B3 | > 75 |
| B4 | > 75 |
| B5 | > 75 |
| B6 | > 75 |
| B7 | > 75 |
| B8 | > 75 |
| B9 | > 75 |
| B10 | > 75 |
| B11 | > 75 |
| B12 | > 75 |
| B13 | > 75 |
| B14 | > 75 |
| B15 | > 75 |
| B16 | > 75 |
| B17 | > 75 |
| B18 | > 75 |
| B19 | > 75 |
| B20 | > 75 |
| B21 | > 75 |
| B22 | > 75 |
| B23 | > 75 |
| B24 | > 75 |
| B25 | > 75 |
| B26 | > 75 |
| B27 | > 75 |

| Binder | peptide exchange yield [%] |
| --- | --- |
| B28 | > 75 |
| B29 | > 75 |
| B30 | > 75 |
| B31 | > 75 |
| B32 | > 75 |
| B33 | > 75 |
| B34 | > 75 |
| B35 | > 75 |
| B36 | > 75 |
| B37 | > 75 |
| B38 | > 75 |
| B39 | > 75 |
| B40 | > 75 |
| B41 | > 75 |
| B42 | > 75 |
| B43 | > 75 |
| B44 | > 75 |
| B45 | > 75 |
| B46 | > 75 |
| B47 | > 75 |
| B48 | > 75 |
| B49 | > 75 |
| B50 | > 75 |
| B51 | > 75 |
| B52 | > 75 |
| B53 | > 75 |
| B54 | > 75 |

— patent US20200040057A1 (IMMATICS BIOTECHNOLOGIES, published 2020)
